Measurements as given in doi:10.1101/2021.10.21.465318.
Substitutions are numbered along the chain they refer to. Where two headings read alike, the source gives them in different places.

Legend:
Test in all cases: FRET
[1] = molecular target: T1, HsMSH2;HsMSH6 (sortase/Cy3) (Homo sapiens;Homo sapiens, UniProt P43246;P52701 1-934;1-1360, |)
[2] = molecular target: T2, HsMSH2;HsMSH3 (sortase/Cy3) (Homo sapiens;Homo sapiens, UniProt P43246;P20585 1-934;1-1137, |)
[3] = molecular target: T1, HsMSH2;HsMSH6 (sortase/Cy3); remark: listed apart in the source
[4] = molecular target: T2, HsMSH2;HsMSH3 (sortase/Cy3); remark: listed apart in the source
[5] = molecular target: T1, HsMSH2;HsMSH6 (sortase/Cy3); remark: listed apart in the source
[6] = molecular target: T2, HsMSH2;HsMSH3 (sortase/Cy3); remark: listed apart in the source

B1: 41-mer G/T Cy5 (dsDNA)
DNA 1: GCTTAGGATCATCGAGGATCGAGCTCGGTGCAATTCAGCGG
DNA 2: CCGCTGAATTGCACCGAGCTTGATCCTGCATGATCCTAAGC
modifications: amino-C6 dT at position 12 of top strand
- binding result [1]: binds
- binding result [2]: no binding

B2: 41-mer G/+(CA)4 Cy5 (dsDNA)
DNA 1: B1 DNA 1
DNA 2: CCGCTGAATTGCACCGAGCTCACACACACGATCCTCGATGATCCTAAGC
modifications: amino-C6 dT at position 12 of top strand
- binding result [3]: binds
- binding result [4]: binds

B3: 41-mer G/C Cy5 (dsDNA)
DNA 1: B1 DNA 1
DNA 2: B1 DNA 2 with T21C, G28C, C29G
modifications: amino-C6 dT at position 12 of top strand
- binding result [5]: no binding
- binding result [6]: no binding
